The series concerns the molecule itself. Nature of the series: native gel or EMSA + SEC + AUC; free TCF4 and TCF4 with E-box dsDNA; buffer S (20 mM Tris-HCl, 150 mM NaCl, 2 mM TCEP, pH 7.5); SV-AUC at 20 °C, 2.5, 5.0 and 7.5 µM dTCF4, molecular weight fixed at that of the dimer (96.5 kDa); SEC on Superdex 200 Increase 10/300; native PAGE on 5% gel in 0.5 x TBE at 4 °C. A general note: In EMSA bound probe runs differently from free probe, usually more slowly.

B1: Transcription factor 4 (TCF4), human isoform I- (natural protein, UniProt P15884-16 1-451, looked up)
chain: MQDGHHSSDPWSSSSGMNQPGYAGMLGNSSHIPQSSSYCSLHPHERLSYPSHSSADINSSLPPMSTFHRSGTNHYSTSSCTPPANGTDSIMANRGSGAAGSSQTGDALGKALASIYSPDHTNNSFSSNPSTPVGSPPSLSAGTAVWSRNGGQASSSPNYEGPLHSLQSRIEDRLERLDDAIHVLRNHAVGPSTAMPGGHGDMHGIIGPSHNGAMGGLGSGYGTGLLSANRHSLMVGTHREDGVALRGSHSLLPNQVPVPQLPVQSATSPDLNPPQDPYRGMPPGLQGQSVSSGSSEIKSDDEGDENLQDTKSSEDKKLDDDKKDIKSITSNNDDEDLTPEQKAEREKERRMANNARERLRVRDINEAFKELGRMVQLHLKSDKPQTKLLILHQAVAVILSLEQQVRERNLNPKAACLKRREEEKVSSEPPPLSLAGPHPGMGDASNHMGQM
notes: Transcription factor 4 (TCF4), human, isoform I- (UniProt P15884-16), full length; lacks amino acids 1-216 of the canonical isoform B- (P15884-1); bHLH domain at residues 348-401; dimer 96.5 kDa; numbers count on: isoform I- (P15884-16); cDNA synthesised and codon-optimised, cloned into pET-SUMO; also called TCF4 I-; dTCF4 (dimeric TCF4); source: E. coli ArcticExpress, purified (Ni-NTA with 6 M …)
As for B1, the binding result is on record as “binds”.

The values are drawn from article PMC11948756, “The molecular properties of the bHLH TCF4 protein as an intrinsically disordered hub transcription factor” (Cell Communication and Signaling : CCS, 2025).
